Data reported in IntAct's records for PubMed 17299042.

B1: Protein BMH2 (Saccharomyces cerevisiae), P34730 (parent)
chain: MSQTREDSVYLAKLAEQAERYEEMVENMKAVASSGQELSVEERNLLSVAYKNVIGARRASWRIVSSIEQKEESKEKSEHQVELIRSYRSKIETELTKISDDILSVLDSHLIPSATTGESKVFYYKMKGDYHRYLAEFSSGDAREKATNSSLEAYKTASEIATTELPPTHPIRLGLALNFSVFYYEIQNSPDKACHLAKQAFDDAIAELDTLSEESYKDSTLIMQLLRDNLTLWTSDISESGQEDQQQQQQQQQQQQQQQQQAPAEQTQGEPTK

Variants of: B1
Settings: with rad53_yeast RAD53, P22216
Sequence of rad53_yeast RAD53, P22216 (P22216 whole entry): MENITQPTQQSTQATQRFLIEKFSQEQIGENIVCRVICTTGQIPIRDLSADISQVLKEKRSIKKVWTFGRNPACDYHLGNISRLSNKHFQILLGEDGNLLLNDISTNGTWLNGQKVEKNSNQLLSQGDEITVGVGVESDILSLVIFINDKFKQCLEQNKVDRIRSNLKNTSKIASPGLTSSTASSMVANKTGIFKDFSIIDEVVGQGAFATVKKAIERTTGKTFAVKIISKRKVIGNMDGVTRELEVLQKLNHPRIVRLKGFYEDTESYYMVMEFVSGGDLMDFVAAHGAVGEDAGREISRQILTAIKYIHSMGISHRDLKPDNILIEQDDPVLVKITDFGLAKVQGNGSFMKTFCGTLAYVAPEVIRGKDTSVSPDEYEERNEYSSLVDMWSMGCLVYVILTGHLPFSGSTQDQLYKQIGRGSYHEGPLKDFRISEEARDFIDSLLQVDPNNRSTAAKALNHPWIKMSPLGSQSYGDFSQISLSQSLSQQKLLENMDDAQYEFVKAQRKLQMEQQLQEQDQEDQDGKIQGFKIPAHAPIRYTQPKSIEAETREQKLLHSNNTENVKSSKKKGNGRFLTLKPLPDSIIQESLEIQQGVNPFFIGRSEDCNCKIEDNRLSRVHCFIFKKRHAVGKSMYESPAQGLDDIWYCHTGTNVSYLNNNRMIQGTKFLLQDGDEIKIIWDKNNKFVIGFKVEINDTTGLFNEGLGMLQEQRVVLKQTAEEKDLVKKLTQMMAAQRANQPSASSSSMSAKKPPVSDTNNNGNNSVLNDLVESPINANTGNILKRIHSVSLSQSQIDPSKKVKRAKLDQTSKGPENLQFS

| Variant | effect of a mutation on the interaction |
| --- | --- |
| L225Q | disrupting interaction strength |
| E185D | disrupting interaction strength |
| K51R | decreasing interaction strength |
| K51L | decreasing interaction strength |
